Assay [1] concerns the target HA-Smad2 (wild type) (human, UniProt Q15796 1-467). In words: cell-based or functional assay.
The target in assay [2] is HA-Smad3 (wild type) (human, UniProt P84022 1-425). In words: cell-based or functional assay.
HA-Smad3 (wild type), sequence (P84022 whole entry): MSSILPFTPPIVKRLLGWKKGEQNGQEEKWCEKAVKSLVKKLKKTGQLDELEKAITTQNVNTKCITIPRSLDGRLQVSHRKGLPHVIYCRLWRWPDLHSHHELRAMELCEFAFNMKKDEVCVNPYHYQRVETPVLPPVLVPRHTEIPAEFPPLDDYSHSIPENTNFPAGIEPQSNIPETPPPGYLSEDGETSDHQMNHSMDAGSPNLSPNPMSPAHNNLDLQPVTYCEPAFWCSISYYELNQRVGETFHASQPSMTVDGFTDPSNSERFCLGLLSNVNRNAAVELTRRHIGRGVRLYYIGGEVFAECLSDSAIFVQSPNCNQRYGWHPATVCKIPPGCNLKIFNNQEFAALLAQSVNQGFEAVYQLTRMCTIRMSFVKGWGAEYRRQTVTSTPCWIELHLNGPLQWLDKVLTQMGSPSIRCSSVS

HA-Smad2 (wild type), sequence (Q15796 whole entry): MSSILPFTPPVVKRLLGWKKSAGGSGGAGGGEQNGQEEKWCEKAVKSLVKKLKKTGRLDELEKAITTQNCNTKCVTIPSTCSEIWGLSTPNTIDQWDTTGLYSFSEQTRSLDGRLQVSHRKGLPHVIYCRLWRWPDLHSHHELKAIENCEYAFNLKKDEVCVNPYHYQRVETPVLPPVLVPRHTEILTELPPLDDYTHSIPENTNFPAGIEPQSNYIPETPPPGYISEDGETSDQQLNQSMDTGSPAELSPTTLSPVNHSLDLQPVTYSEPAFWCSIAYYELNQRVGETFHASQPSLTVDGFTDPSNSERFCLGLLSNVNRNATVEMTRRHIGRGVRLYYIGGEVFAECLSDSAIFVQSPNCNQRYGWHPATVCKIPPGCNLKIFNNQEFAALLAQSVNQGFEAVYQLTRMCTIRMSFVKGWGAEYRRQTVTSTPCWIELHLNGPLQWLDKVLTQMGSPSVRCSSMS

B1: Flag-Foxd4l1.1 (natural protein, Xenopus, UniProt Q9PRJ8 1-352, looked up)
chain: MSFSQESGAHHHPQDYAGLSDEEDEIDILGEDDPCSLKSHFYLQPTHSVMGDSEMLSPSKLSCTESESDSSGESEGGTSKDSSTTPTGSKAKRTLVKPPYSYIALITMAILQSPHKKLTLSGICDFISSKFPYYKDKFPAWQNSIRHNLSLNDCFIKIPREPGNPGKGNYWTLDPASEDMFDNGSFLRRRKRFKRHQQEFFKDGLMMYNSLPYYRPYSAIQPQPVLQQTSLTCMAIPETLPMSTHLAPYPDIKRKVSYPAQGVHRGFKAQDADNHPNNSQSKCSFSIENIMRKPKEPEPNIQSFNSHWNYNHVFQRPSSCLLPAVLNLSTGPLLANTQGARQYNLIQFPGCY
As to B1, the “ChIP-qPCR: occupancy of HA-Smad2 on the AREs of the chrd promoter without and with co-injected Flag-Foxd4l1.1 (fold enrichment)” value in assay [1] came out at 7.3 fold. Moreover, the “ChIP-qPCR: occupancy of HA-Smad3 on the AREs of the chrd promoter without and with co-injected Flag-Foxd4l1.1 (fold enrichment)” value in assay [2] is 4.02 fold.

Source of the values: publication PMC8534798, “Foxd4l1.1 Negatively Regulates Chordin Transcription in Neuroectoderm of Xenopus Gastrula” (Cells, 2021).
